Values of other authors, collected in patent US9241970B2, “Therapy for subarachnoid hemorrhage and ischemia” (NoNO Inc., priority 2011, dated 2016).

Biological target: binding of NMDAR2B to PSD-95 (Homo sapiens, UniProt P78352)
Details: reported by Bach

Sequence of binding of NMDAR2B to PSD-95 (P78352 whole entry): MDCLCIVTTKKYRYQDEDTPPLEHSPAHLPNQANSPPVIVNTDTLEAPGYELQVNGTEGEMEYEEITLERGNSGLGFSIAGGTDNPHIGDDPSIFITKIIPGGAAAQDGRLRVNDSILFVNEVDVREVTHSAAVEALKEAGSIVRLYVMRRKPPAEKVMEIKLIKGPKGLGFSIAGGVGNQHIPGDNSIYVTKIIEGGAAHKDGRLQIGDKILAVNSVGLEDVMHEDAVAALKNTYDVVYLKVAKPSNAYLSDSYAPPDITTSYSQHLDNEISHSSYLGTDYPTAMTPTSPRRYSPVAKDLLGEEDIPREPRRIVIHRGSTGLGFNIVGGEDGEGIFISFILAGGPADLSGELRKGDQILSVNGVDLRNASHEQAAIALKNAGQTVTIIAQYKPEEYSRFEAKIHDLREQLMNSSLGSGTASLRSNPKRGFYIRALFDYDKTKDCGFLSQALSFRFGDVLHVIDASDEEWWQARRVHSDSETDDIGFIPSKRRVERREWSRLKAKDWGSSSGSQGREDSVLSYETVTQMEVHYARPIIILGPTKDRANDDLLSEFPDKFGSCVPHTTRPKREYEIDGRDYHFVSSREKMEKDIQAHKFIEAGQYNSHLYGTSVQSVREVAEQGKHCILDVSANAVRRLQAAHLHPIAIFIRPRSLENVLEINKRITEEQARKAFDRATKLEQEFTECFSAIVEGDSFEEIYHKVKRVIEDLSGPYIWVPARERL

## IESDV (listed as Homo sapiens)
  inhibition of binding of NMDAR2B to PSD-95: effective in inhibiting binding of NMDAR2B to PSD-95
